Consider 1 molecule from patent publication US7265267.

The target of the experiment is CDK complexes from A. thaliana purified on p13suc1 sepharose beads. The experiment is described as follows: cell-based or functional assay.

B1: Purified recombinant FL66 protein (E. coli, FL66pET21d), starting at methionine 11 (protein)
chain: MEVSKATAPSPGVRTRAAKTLALKRLNSSAADSALPNDSSCYLQLRSRRLEKPSSLIEPKQPPRVHRSGIKESGSRSRVDSVNSVPVAQSSNEDECFDNFVSVQVSCGENSLGFESRHSTRESTPCNFVEDMEIMVTPGSSTRSMCRATKEYTREQDNVIPTTSEMEEFFAYAEQQQQRLFMEKYNFDIVNDIPLSGRYEWVQVKP
Consider B1, for which the CDK activity measured using histone H1 as substrate, compared to a control sample without FL66; 10 nM FL66 (% of the control) was determined as 82; the CDK activity measured using histone H1 as substrate, compared to a control sample without FL66; 100 nM FL66 (% of the control) was 74; the CDK activity measured using histone H1 as substrate, compared to a control sample without FL66; 1 uM FL66 (% of the control) was determined as 56; the CDK activity measured using histone H1 as substrate, compared to a control sample without FL66; 10 uM FL66 (% of the control) is 12. Also, the kinase activity of the CDK fraction bound to p13suc1 beads, FL66 added prior to washing of the beads; 0.1 uM FL66 (% of the control) was 81 and the kinase activity of the CDK fraction bound to p13suc1 beads, FL66 added prior to washing of the beads; 10 uM FL66 (% of the control) turned out to be 35.
